Experiments:
[1] = target: PIΔC SVMP metalloproteinase (MP) domain (Echis ocellatus); experiment: SEC
[2] = target: PII SVMP zymogen (Venom metalloprotease PII-SVMP EOC00006, Echis ocellatus) (Echis ocellatus); experiment: SEC + other: non-reducing SDS-PAGE
[3] = target: integrin αIIbβ3 (human (endogenous in platelets)) (UniProt P08514)
Chain of UniProt P08514 (P08514 32-1039, chain 1 of 2): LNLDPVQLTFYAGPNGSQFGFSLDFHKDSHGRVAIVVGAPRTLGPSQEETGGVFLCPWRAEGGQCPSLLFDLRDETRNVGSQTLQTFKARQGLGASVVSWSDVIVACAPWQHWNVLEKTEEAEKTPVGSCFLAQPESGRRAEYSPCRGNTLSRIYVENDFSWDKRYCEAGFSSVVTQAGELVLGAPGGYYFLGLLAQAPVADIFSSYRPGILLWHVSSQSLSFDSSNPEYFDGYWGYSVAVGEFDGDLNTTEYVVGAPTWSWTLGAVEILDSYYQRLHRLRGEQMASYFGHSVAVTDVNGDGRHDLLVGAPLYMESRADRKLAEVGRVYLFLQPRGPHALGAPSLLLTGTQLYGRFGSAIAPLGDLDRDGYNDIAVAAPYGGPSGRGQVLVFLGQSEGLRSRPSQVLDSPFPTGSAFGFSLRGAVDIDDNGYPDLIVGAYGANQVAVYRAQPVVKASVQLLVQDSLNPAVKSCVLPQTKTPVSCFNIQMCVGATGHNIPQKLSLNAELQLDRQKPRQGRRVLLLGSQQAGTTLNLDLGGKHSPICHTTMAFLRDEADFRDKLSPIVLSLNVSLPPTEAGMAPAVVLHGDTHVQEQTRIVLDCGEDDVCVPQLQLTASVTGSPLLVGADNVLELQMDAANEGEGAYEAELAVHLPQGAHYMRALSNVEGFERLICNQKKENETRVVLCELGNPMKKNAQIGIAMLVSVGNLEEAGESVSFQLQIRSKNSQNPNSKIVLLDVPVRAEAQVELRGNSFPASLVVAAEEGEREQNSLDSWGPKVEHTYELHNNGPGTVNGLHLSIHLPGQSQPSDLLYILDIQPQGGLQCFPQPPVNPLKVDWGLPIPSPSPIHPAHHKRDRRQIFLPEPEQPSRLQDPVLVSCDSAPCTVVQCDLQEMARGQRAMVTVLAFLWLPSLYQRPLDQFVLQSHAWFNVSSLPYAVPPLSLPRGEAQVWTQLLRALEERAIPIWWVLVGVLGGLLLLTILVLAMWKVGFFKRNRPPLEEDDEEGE
Chain of UniProt P08514 (P05106 27-788, chain 2 of 2, further chain): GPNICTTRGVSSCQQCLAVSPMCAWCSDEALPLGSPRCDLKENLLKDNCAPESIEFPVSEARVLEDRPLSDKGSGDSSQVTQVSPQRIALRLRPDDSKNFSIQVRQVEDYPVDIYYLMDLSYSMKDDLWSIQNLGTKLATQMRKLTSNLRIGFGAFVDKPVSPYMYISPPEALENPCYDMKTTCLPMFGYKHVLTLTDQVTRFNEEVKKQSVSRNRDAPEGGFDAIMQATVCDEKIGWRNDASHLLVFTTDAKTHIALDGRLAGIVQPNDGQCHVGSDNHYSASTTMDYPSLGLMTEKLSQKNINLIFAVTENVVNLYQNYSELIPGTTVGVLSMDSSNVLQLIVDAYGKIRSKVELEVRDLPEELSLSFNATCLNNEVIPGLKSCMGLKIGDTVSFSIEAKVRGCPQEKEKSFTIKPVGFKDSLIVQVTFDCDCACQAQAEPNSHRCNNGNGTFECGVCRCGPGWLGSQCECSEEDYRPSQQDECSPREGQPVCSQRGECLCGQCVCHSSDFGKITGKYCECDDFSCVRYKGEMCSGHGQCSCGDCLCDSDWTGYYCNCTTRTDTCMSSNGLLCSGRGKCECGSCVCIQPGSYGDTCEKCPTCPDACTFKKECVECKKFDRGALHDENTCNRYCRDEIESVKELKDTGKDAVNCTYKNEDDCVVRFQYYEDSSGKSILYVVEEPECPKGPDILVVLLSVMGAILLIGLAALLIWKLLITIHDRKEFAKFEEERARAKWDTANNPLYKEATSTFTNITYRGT

Work on PI SVMP prodomain (domain or fragment) yielded a stoichiometry N [1] of 1.

With “PII SVMP zymogen (Venom metalloprotease PII-SVMP EOC00006, Echis ocellatus) (from UniProt A0A3G1E3U2 1-494) (enzyme)” the stoichiometry N [2] was 2.

activated PII SVMP (enzyme) showed a 2-MeS-ADP-induced platelet aggregation in human platelet-rich plasma (plate aggregometry), % aggregation at 500 nM SVMP (% aggregation) [3] of 12.

Reference: paper PMC13252954
